Target: CBD-cohesin from C. thermocellum displayed on the yeast cell surface (CtCBDcoh yeast), P32781
Sequence (P32781 whole entry, looked up): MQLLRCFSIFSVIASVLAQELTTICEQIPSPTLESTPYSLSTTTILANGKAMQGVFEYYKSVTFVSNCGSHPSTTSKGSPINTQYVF

B1: Cel8A cellulase spliced to the Cel48S dockerin with aspartic acid substituted for the No. 18 and No. 50 asparagines, His-tagged (CtCBDcohCel8A48SdocN-D yeast) (protein)
chain: AGVPFNTKYPYGPTSIADNQSEVTAMLKAEWEDWKSKRITSNGAGGYKRVQRDASTNYDTVSEGMGYGLLLAVCFNEQALFDDLYRYVKSHFNGNGLMHWHIDANNNVTSHDGGDGAATDADEDIALALIFADKLWGSSGAINYGQEARTLINNLYNHCVEHGSYVLKPGDRWGGSSVTNPSYFAPAWYKVYAQYTGDTRWNQVADKCYQIVEEVKKYNNGTGLVPDWCTASGTPASGQSYDYKYDATRYGWRTAVDYSWFGDQRAKANCDMLTKFFARDGAKGIVDGYTIQGSKISNNHNASFIGPVAAASMTGYDLNFAKELYRETVAVKDSEYYGYYGNSLRLLTLLYITGNFPNPLSDLSGQPTPPSNPTPSLPPQVVYGPSSGTPSTKLYGDVNDDGKVDSTDAVALKRYVLRSGISINTDNADLNEDGRVDSTDLGILKRYILKEIDTLPYKN
CMC decomposition activity: CMC decomposition activity was increased by amino acid substitution (FIG. 11), indicating improved saccharification ability of the yeast
